Data published in doi:10.1101/2023.07.14.549122.

B1: gRNA-target ssDNA (25 nt target) (DNA:RNA)
RNA: AAACGGCUCUAAUCUAUUAGU
DNA: CAACTAATAGATTAGAGCCGTTTAT
modifications: 5'-phosphate on gRNA

Columns and labels:
[1] = molecular target: Crenotalea thermophila SPARTA complex (heterodimer of TIR-APAZ and short pAgo) (Crenotalea thermophila); test: cryo-EM structure
[2] = molecular target: T1, short pAgo (SPARTA);TIR-APAZ (SPARTA) (Crenotalea thermophila;Crenotalea …, UniProt A0A1I7NFD7;A0A1I7NFG5 1-507;1-450, |); test: cryoEM structure
T1 sequence 1: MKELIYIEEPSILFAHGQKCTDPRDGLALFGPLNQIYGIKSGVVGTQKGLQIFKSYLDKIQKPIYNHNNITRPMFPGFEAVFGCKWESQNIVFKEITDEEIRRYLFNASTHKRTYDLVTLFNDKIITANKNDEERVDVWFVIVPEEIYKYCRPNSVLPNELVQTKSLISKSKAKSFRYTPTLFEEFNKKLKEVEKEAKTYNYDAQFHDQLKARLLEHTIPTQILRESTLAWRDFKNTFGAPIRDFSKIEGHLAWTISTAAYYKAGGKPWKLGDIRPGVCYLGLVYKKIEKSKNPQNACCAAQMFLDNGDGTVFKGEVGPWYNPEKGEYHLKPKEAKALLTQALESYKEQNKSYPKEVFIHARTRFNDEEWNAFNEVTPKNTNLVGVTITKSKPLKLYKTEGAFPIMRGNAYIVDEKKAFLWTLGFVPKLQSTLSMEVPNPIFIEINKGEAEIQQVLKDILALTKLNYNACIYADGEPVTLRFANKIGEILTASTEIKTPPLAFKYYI
T1 sequence 2: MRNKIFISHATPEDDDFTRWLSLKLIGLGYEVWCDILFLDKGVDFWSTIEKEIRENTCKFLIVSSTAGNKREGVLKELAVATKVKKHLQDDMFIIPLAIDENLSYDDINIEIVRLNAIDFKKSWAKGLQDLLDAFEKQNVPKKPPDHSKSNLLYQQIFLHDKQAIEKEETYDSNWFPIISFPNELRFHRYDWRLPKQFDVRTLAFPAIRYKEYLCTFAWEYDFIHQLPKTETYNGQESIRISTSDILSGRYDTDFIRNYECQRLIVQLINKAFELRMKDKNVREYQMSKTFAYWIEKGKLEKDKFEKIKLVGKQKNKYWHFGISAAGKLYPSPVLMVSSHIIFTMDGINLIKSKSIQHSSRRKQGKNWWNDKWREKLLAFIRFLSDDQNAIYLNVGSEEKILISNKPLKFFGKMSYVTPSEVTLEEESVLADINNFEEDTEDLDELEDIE

Row | Molecule | stoichiometry N [1] | binding result [2]
1 | Crenotalea thermophila SPARTA complex (heterodimer of TIR-APAZ and short pAgo) | 4 | 
2 | B1 |  | binds
